Literature values in article PMC9736027.

Target: Nrf2 (Homo sapiens) (UniProt Q16236)
UniProt Q16236, sequence (Q16236 whole entry): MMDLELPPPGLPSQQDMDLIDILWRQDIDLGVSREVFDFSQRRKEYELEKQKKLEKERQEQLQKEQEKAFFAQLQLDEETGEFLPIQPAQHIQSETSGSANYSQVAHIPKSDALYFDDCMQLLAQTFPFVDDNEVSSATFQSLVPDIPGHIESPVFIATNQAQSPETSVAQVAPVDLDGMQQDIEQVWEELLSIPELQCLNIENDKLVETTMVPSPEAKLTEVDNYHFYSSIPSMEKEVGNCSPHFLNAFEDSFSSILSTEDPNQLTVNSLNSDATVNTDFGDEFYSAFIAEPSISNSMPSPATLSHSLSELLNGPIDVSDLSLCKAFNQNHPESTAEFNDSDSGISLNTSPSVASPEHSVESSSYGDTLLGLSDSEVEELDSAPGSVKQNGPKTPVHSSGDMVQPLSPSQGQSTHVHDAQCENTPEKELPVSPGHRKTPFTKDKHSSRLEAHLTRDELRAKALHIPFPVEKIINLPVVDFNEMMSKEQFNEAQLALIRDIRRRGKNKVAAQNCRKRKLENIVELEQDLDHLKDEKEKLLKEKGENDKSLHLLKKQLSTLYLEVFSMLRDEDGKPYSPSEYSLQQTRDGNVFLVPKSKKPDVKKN

Kd: 20 nM
Substance: Keap1 (from UniProt Q14145)
